This is an account of results in publication PMC5882647, “Simultaneous Monitoring of Cell-surface Receptor and Tumor-targeted Photodynamic Therapy via TdT-initiated Poly-G-Quadruplexes”.

This series addresses c-Met-Fc fusion protein (UniProt P08581 25-932). Description: EMSA; EMSA: DNA (printed 200 nmol) with c-Met-Fc or BSA (printed 200 nmol) in 10 uL DPBS, 30 min, 37 C; native 4-20% TBE gel, SYBR Green II; pH not stated. The following applies: protein: recombinant; tags: Fc; chain copies: 2. (In general: In EMSA bound probe runs differently from free probe, usually more slowly.)

c-Met-Fc fusion protein, sequence (P08581 25-932): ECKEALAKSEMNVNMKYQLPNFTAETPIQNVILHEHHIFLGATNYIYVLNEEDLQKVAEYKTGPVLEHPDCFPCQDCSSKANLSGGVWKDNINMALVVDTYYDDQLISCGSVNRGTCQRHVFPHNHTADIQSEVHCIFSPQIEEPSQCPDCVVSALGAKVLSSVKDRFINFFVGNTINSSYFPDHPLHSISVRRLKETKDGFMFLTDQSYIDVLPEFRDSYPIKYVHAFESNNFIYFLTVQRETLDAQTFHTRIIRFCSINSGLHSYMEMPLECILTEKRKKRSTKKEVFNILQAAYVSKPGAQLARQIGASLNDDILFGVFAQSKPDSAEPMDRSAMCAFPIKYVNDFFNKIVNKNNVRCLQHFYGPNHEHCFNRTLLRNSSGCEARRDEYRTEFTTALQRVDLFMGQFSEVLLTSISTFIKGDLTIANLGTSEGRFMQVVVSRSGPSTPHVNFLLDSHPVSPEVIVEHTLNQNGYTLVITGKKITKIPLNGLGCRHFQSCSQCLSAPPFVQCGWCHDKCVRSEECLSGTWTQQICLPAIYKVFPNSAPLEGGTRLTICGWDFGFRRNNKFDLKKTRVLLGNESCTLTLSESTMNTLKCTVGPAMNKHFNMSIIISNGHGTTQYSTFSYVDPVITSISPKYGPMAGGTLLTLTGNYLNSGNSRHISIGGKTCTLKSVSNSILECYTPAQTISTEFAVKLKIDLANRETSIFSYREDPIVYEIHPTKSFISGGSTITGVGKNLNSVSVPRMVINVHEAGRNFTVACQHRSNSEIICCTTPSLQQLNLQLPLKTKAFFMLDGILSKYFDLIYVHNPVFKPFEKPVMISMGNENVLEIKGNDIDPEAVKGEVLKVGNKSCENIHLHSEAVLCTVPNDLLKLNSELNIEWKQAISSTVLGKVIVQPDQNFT

B1: Lib-primer (LP) (ssDNA)
DNA: ATTTAGAGTGACGCAGCAGGACACGGTGGCTTAGTTTTTCAAGGCTTAGTTTTTTTTTTTTTTTTTTAATACAACCTCTCA
Take B1: the binding result is on record as “no binding”.

B2: aptamer-primer (AP; SL1 aptamer + poly-T linker + primer) (ssDNA)
DNA: ATCAGGCTGGATGGTAGCTCGGTCGGGGTGGGTGGGTTGGCAAGTCTGATTTTTTTTTTTTTTTTTTAATACAACCTCTCA
As to B2, the binding result was “binds”.
